# Measured values: PMC3581772
# T1: I59T human lysozyme (human) (UniProt P61626)
# T1 sequence: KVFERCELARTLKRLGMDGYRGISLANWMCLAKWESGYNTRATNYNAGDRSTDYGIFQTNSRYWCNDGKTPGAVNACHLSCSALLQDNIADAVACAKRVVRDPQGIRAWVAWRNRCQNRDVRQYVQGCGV
# Experiments:
# [1] = target: amyloid β peptide Aβ(1–42) (UniProt P05067)
# [2] = target: T1, I59T human lysozyme (human)
# [3] = target: T1, I59T human lysozyme (human); remark: listed apart in the source
binder,measurement,setting,value
native α2-macroglobulin (natural protein) SVSGKPQYMVLVPSLLHTETTEKGCVLLSYLNETVTVSASLESVRGNRSLFTDLEAENDVLHCVAFAVPKSSSNEEVMFLTVQVKGPTQEFKKRTTVMVKNEDSLVFVQTDKSIYKPGQTVKFRVVSMDENFHPLNELIPLVYIQDPKGNRIAQWQSFQLEGGLKQFSFPLSSEPFQGSYKVVVQKKSGGRTEHPFTVEEFVLPKFEVQVTVPKIITILEEEMNVSVCGLYTYGKPVPGHVTVSICRKYSDASDCHGEDSQAFCEKFSGQLNSHGCFYQQVKTKVFQLKRKEYEMKLHTEAQIQEEGTVVELTGRQSSEITRTITKLSFVKVDSHFRQGIPFFGQVRLVDGKGVPIPNKVIFIRGNEANYYSNATTDEHGLVQFSINTTNVMGTSLTVRVNYKDRSPCYGYQWVSEEHEEAHHTAYLVFSPSKSFVHLEPMSHELPCGHTQTVQAHYILNGGTLLGLKKLSFYYLIMAKGGIVRTGTHGLLVKQEDMKGHFSISIPVKSDIAPVARLLIYAVLPTGDVIGDSAKYDVENCLANKVDLSFSPSQSLPASHAHLRVTAAPQSVCALRAVDQSVLLMKPDAELSASSVYNLLPEKDLTGFPGPLNDQDNEDCINRHNVYINGITYTPVSSTNEKDMYSFLEDMGLKAFTNSKIRKPKMCPQLQQYEMHGPEGLRVGFYESDVMGRGHARLVHVEEPHTETVRKYFPETWIWDLVVVNSAGVAEVGVTVPDTITEWKAGAFCLSEDAGLGISSTASLRAFQPFFVELTMPYSVIRGEAFTLKATVLNYLPKCIRVSVQLEASPAFLAVPVEKEQAPHCICANGRQTVSWAVTPKSLGNVNFTVSAEALESQELCGTEVPSVPEHGRKDTVIKPLLVEPEGLEKETTFNSLLCPSGGEVSEELSLKLPPNVVEESARASVSVLGDILGSAMQNTQNLLQMPYGCGEQNMVLFAPNIYVLDYLNETQQLTPEIKSKAIGYLNTGYQRQLNYKHYDGSYSTFGERYGRNQGNTWLTAFVLKTFAQARAYIFIDEAHITQALIWLSQRQKDNGCFRSSGSLLNNAIKGGVEDEVTLSAYITIALLEIPLTVTHPVVRNALFCLESAWKTAQEGDHGSHVYTKALLAYAFALAGNQDKRKEVLKSLNEEAVKKDNSVHWERPQKPKAPVGHFYEPQAPSAEVEMTSYVLLAYLTAQPAPTSEDLTSATNIVKWITKQQNAQGGFSSTQDTVVALHALSKYGAATFTRTGKAAQVTIQSSGTFSSKFQVDNNNRLLLQQVSLPELPGEYSMKVTGEGCVYLQTSLKYNILPEKEEFPFALGVQTLPQTCDEPKAHTSFQISLSVSYTGSRSASNMAIVDVKMVSGFIPLKPTVKMLERSNHVSRTEVSSNHVLIYLDKVSNQTLSLFFTVLQDVPVRDLKPAIVKVYDYYETDEFAIAEYNAPCSKDLGNA,"suppression of ThT signal at the endpoint of Aβ(1–42) fibril formation, Aβ-to-α2M 10:1",[1],> 80%
same,"decrease of ThT fluorescence at the endpoint of I59T lysozyme fibril formation, lysozyme-to-α2M 10:1",[2],> 90%
same,I59T lysozyme left soluble at the endpoint (SDS–PAGE of supernatants),[3],> 90%
